In the supplement of paper PMC10201428:
± gives the standard deviation of the averaged measurements.

How the values were obtained:
[1] = test system: VchCAST RNA-guided transposition machinery (E. coli BL21(DE3) host, lacZ target); assay: relative integration efficiency (T-RL orientation) vs wild-type transposon end (log2 (normalized fold change)); transposon end mutated: left end; higher = more efficient transposition
In short: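 Barcoded pools of 1549 left-end or 1849 right-end transposon variants were cloned into a pUC57 mini-transposon donor. Each pool was co-transformed with a T7-driven effector plasmid (CRISPR array, tniQ-cas8-cas7-cas6, tnsA-tnsB-tnsC) into E. coli BL21(DE3) and plated with 0.1 mM IPTG at 37°C for 18 h. Input plasmids and genomic integration junctions were PCR-amplified and Illumina-sequenced, with two biological output replicates and four wild-type barcodes as reference. Relative integration efficiency is output/input barcode abundance fold change, normalised to wild-type barcodes and log-transformed.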

[2] = test system: VchCAST RNA-guided transposition machinery (E. coli BL21(DE3) host, lacZ target); assay: relative integration efficiency (T-LR orientation) vs wild-type transposon end (log2 (normalized fold change)); transposon end mutated: left end; higher = more efficient transposition
Experimental: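 Pooled, barcoded VchCAST (Tn6677) mini-transposon donor libraries; each variable transposon-end sequence sits in a fixed pDonor mini-transposon context (10-bp barcode and cargo not included). Left- or right-end libraries were co-transformed with pEffector (TniQ-Cascade, TnsABC, lacZ crRNA, T7, 0.1 mM IPTG) into E. coli BL21(DE3) and grown 18 h at 37 C. T-LR and T-RL junction amplicons were sequenced; output/input barcode fold change was normalised to the mean of four wild-type barcodes and log2-transformed. Two biological replicates; zero-count/undetected variants carry floor values (-10 / -15), censored here. Barcode uncoupling by PCR recombination adds noise.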

AATGTTGTTGAAACAACCATAAAGTGATAACAACGAATCAATTAAAATCATAGGCTTAATCGAAAAACAACCATATCTTGATATCGCACAAAACAACCATAAGTTGATATTTTTGTGAATCGAGTATTTCAGCAAAACTACTGCAGTAAGAA
relative integration efficiency (log2) [1]: -0.51 ± 0.3
relative integration efficiency (log2) [2]: -0.526 ± 0.33

AATGTTGTTGAAACAACCATAAAGTGATAACAACGAATCAATTAAAATCATAGGCTTAATCGAAAAACAACCATATCTTGATATCGCATAAAACAACCATAAGTTGATATTTTGGTGAAAAGGATATTCCAACCTTCATAGTTTAGTAAGAA
relative integration efficiency (log2) [1]: -0.201 ± 0.34
relative integration efficiency (log2) [2]: 0.198 ± 0.12

AATGTTGTTGAAACAACCATAAAGTGATAACAACGAATCAATTAAAATCATAGGCTTAATCGAAAAACAACCATATCTTGATATCGCATAAAACAACCATAAGTTGATATTTTGGTGAAACGAGTATTTCAGCAAAACTACTGCAGTAAGAA
relative integration efficiency (log2) [1]: 0.0434 ± 0.29
relative integration efficiency (log2) [2]: -0.44 ± 0.53

AATGTTGTTGAAACAACCATAAAGTGATAACAACGAATCAATTAAAATCATAGGCTTAATCGAAAAACAACCATATCTTGATATCGCATAAAACAACCATAAGTTGATATTTTTGTGAATCGAGTATTTCAGCAAAACTACTGCAGTAAGAA
relative integration efficiency (log2) [1]: -0.424 ± 0.24
relative integration efficiency (log2) [2]: -0.327 ± 0.31

AATGTTGTTGACAACCATAAAGTGATATTTAATAATTATTTATAATCAGCAACTTAACCACAAAACAACCATATATTGATATCTCACAAAACAACCATAAGTTGATATTTTTGTGAATCGAGTATTTCAGCAAAACTACTGCAGTAAGAAAG
relative integration efficiency (log2) [1]: -1.33 ± 0.66
relative integration efficiency (log2) [2]: -5.1 ± 0.69

AATGTTGTTGATACAACCATAAAATGATAATTACACCCATAAATTGATAATTATCACACCCATAAATTGATATTGCTGTGAATCGAGTATTTCAGCAAAACTACTGCAGTAAGAAAGTTACTTCGTGGTATGGGAGGATCAAGGAGCCAATA
relative integration efficiency (log2) [1]: -2.21 ± 0.71
relative integration efficiency (log2) [2]: 3.47 ± 0.79

AATGTTGTTGATACAACCATAAAGTGATATTTACAACCATATATTGATATCTCTCACAACCATAAGTTGATATTTTTGTGAATCGAGTATTTCAGCAAAACTACTGCAGTAAGAAAGTTACTTCGTGGTATGGGAGGATCAAGGAGCCAATA
relative integration efficiency (log2) [1]: -3.51 ± 1
relative integration efficiency (log2) [2]: 2.35 ± 0.84

AATGTTGTTGATCAACCATAAAGTGATATTTAATAATTATTTATAATCAGCAACTTAACCACAAAACAACCATATATTGATATCTCACAAAACAACCATAAGTTGATATTTTTGTGAATCGAGTATTTCAGCAAAACTACTGCAGTAAGAAA
relative integration efficiency (log2) [1]: -6.905 ± 0.028
relative integration efficiency (log2) [2]: < -10

AATGTTGTTGATGACCAACGCCCTGTCGCGGGCCGCCGGCGGGCGCCGACTACCAGGCCAACACCCCACCAACGCGCGGTCGCGAGACACCCCACCAACGCCTGGTCGCGGGGGTGTCCGATCTGATTTCAGCAAAACTACTGCAGTAAGAA
relative integration efficiency (log2) [2]: < -10

AATGTTGTTGATGACCAACGCCTGGTCGCGGGGATAATTATTTATAATCAGCAACTTAACCACAAAACAACCATATATTGATATCTCACAAAAACCAACGCCCTGTCGCGGGCTGTGAATCGAGTATTTCAGCAAAACTACTGCAGTAAGAA
relative integration efficiency (log2) [2]: < -10

AATGTTGTTGATGCAACACGCCCTGTCGCGGGCCGCCGGCGGGCGCCGACTACCAGGCCAACACCCCACCAACGCGCGGTCGCGAGACACCCCACCAACGCCTGGTCGCGGGGGTGTCCGATCTGATTTCAGCAAAACTACTGCAGTAAGAA
relative integration efficiency (log2) [1]: < -10
relative integration efficiency (log2) [2]: < -10

AATGTTGTTGATGCAACCAATTTCTGATATTTAATAATTATTTATAATCAGCAACTTAACCACAAAACAACCAATATATGATATCTCACAAAACAACCAATTCATGATATTTTTGTGAATCGAGTATTTCAGCAAAACTACTGCAGTAAGAA
relative integration efficiency (log2) [1]: -2.5 ± 1.1
relative integration efficiency (log2) [2]: -1.57 ± 0.77

AATGTTGTTGATGCAACCAGCCCTGTCGCGGGCCGCCGGCGGGCGCCGACTACCAGGCCAACACCCCACCAACGCGCGGTCGCGAGACACCCCACCAACGCCTGGTCGCGGGGGTGTCCGATCTGATTTCAGCAAAACTACTGCAGTAAGAA
relative integration efficiency (log2) [1]: < -10
relative integration efficiency (log2) [2]: -9 ± 0.31

AATGTTGTTGATGCAACCAGCCCTTGATATTTAATAATTATTTATAATCAGCAACTTAACCACAAAACAACCAGCGCGTGATATCTCACAAAACAACCAGCCTGTGATATTTTTGTGAATCGAGTATTTCAGCAAAACTACTGCAGTAAGAA
relative integration efficiency (log2) [2]: < -10

AATGTTGTTGATGCAACCATAAAATGATAATTAATAATTATTTATAATCAGCAACTTAACCACAAAACAACCATAAAATGATAATTAACAAAAGTTGGTATTCAACTATAAAATGTGAATCGAGTATTTCAGCAAAACTACTGCAGTAAGAA
relative integration efficiency (log2) [1]: -2.57 ± 1.3
relative integration efficiency (log2) [2]: -1.23 ± 2.7

AATGTTGTTGATGCAACCATAAAATGATAATTAATAATTATTTATAATCAGCAACTTAACCACAAAACAACCATAAAATGATAATTAACAAAATAATTATCATTTTATGGTTGTGTGAATCGAGTATTTCAGCAAAACTACTGCAGTAAGAA
relative integration efficiency (log2) [1]: -3.63 ± 0.84
relative integration efficiency (log2) [2]: 0.0912 ± 1.6

AATGTTGTTGATGCAACCATAAAATGATAATTAATAATTATTTATAATCAGCAACTTAACCACAAAACAACCATAAAATGATAATTATTTTGTCAACCATAAAATGATAATTATGTGAATCGAGTATTTCAGCAAAACTACTGCAGTAAGAA
relative integration efficiency (log2) [1]: -1.39 ± 0.9
relative integration efficiency (log2) [2]: -1.36 ± 1.1

AATGTTGTTGATGCAACCATAAAATGATAATTAATAATTATTTATAATCAGCAACTTAACCACAAAACAACCATAAAGTGATATTTAACAAAAGTTGGTATTCAACTATAAAATGTGAATCGAGTATTTCAGCAAAACTACTGCAGTAAGAA
relative integration efficiency (log2) [1]: -2.33 ± 0.95
relative integration efficiency (log2) [2]: -0.635 ± 1

AATGTTGTTGATGCAACCATAAAATGATAATTAATAATTATTTATAATCAGCAACTTAACCACAAAACAACCATAAGTTGATATTTTACAAAAGTTGGTATTCAACTATAAAATGTGAATCGAGTATTTCAGCAAAACTACTGCAGTAAGAA
relative integration efficiency (log2) [1]: -2.24 ± 0.86
relative integration efficiency (log2) [2]: -1.49 ± 1.9

AATGTTGTTGATGCAACCATAAAGTGATATTTAATAATTATTCAACCATATATTGATATCTCACAAAACAACCATAAGTTGATATTTTTGTGAATCGAGTATTTCAGCAAAACTACTGCAGTAAGAAAGTTACTTCGTGGTATGGGAGGATC
relative integration efficiency (log2) [2]: -5.27 ± 0.11

AATGTTGTTGATGCAACCATAAAGTGATATTTAATAATTATTTATAATCAGCACAACCATATATTGATATCTCACAAAACAACCATAAGTTGATATTTTTGTGAATCGAGTATTTCAGCAAAACTACTGCAGTAAGAAAGTTACTTCGTGGT
relative integration efficiency (log2) [2]: -4.94 ± 0.63

AATGTTGTTGATGCAACCATAAAGTGATATTTGCTAGCATTATACCTAGGACTGAGCTAGCTGTCAACAACCATATATTGATATCTCACAAAACAACCATAAGTTGATATTTTTGTGAATCGAGTATTTCAGCAAAACTACTGCAGTAAGAA
relative integration efficiency (log2) [2]: < -10

AATGTTGTTGATGCAACCATAAAGTGCGCGGGCCGCCGGCGGGCGCCGACTACCAGGCCAACACCCCACCAACGCGCGGTCGCGAGACACCCCACCAACGCCTGGTCGCGGGGGTGTCCGATCTGATTTCAGCAAAACTACTGCAGTAAGAA
relative integration efficiency (log2) [2]: < -10

AATGTTGTTGATGCAACCATAAAGTTCGCGGGCCGCCGGCGGGCGCCGACTACCAGGCCAACACCCCACCAACGCGCGGTCGCGAGACACCCCACCAACGCCTGGTCGCGGGGGTGTCCGATCTGATTTCAGCAAAACTACTGCAGTAAGAA
relative integration efficiency (log2) [2]: < -10

AATGTTGTTGATGCAACCATAAATGTCGCGGGCCGCCGGCGGGCGCCGACTACCAGGCCAACACCCCACCAACGCGCGGTCGCGAGACACCCCACCAACGCCTGGTCGCGGGGGTGTCCGATCTGATTTCAGCAAAACTACTGCAGTAAGAA
relative integration efficiency (log2) [2]: < -10

AATGTTGTTGATGCAACCATACCTGTATATTTAATAATTATTTATAATCAGCAACTTAACCACAAAACAACCATAGCGGTATATCTCACAAAACAACCATACTGGTATATTTTTGTGAATCGAGTATTTCAGCAAAACTACTGCAGTAAGAA
relative integration efficiency (log2) [2]: < -10

AATGTTGTTGATGCACAACGCCCTGTCGCGGGCCGCCGGCGGGCGCCGACTACCAGGCCAACACCCCACCAACGCGCGGTCGCGAGACACCCCACCAACGCCTGGTCGCGGGGGTGTCCGATCTGATTTCAGCAAAACTACTGCAGTAAGAA
relative integration efficiency (log2) [2]: < -10

AATGTTGTTGATGCCCAACGCCCTGTCGCGGGCCGCCGGCGGGCGCCGACTACCAGGCCAACACCCCACCAACGCGCGGTCGCGAGACACCCCACCAACGCCTGGTCGCGGGGGTGTCCGATCTGATTTCAGCAAAACTACTGCAGTAAGAA
relative integration efficiency (log2) [2]: < -10

AATGTTGTTGATGTAATTATCATTTTATGGTTGATAATTATTTATAATCAGCAACTTAACCACAAAACAACCATAAAATGATAATTAACAAAACAACCATAAAATGATAATTATGTGAATCGAGTATTTCAGCAAAACTACTGCAGTAAGAA
relative integration efficiency (log2) [2]: < -10

AATGTTGTTGATGTAATTATCATTTTATGGTTGATAATTATTTATAATCAGCAACTTAACCACAAAATAATTATCATTTTATGGTTGACAAAACAACCATAAAATGATAATTATGTGAATCGAGTATTTCAGCAAAACTACTGCAGTAAGAA
relative integration efficiency (log2) [2]: < -10
